# In patent US20170226203A1 (Daiichi Sankyo, published 2017):
# Target: T1, human Orai1 (human, UniProt Q96D31 1-301)
# Test: cell-based or functional assay
# T1 sequence (Q96D31 whole entry): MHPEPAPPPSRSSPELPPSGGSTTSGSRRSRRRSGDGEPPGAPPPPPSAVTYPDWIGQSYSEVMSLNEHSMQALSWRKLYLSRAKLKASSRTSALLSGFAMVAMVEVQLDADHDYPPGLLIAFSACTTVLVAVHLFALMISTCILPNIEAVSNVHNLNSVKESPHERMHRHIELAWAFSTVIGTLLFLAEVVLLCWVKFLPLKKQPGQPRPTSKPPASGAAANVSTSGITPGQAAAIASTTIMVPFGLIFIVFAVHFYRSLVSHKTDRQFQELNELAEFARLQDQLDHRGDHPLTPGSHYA
Binder,"IC50, IFN-γ release from human PBMC treated with PMA and A23187","IC50, IL-2 release from Jurkat cells treated with PMA and A23187","IC50, IL-2 release from human PBMC treated with PMA and A23187","IC80, IFN-γ release from human PBMC treated with PMA and A23187","IC80, IL-2 release from Jurkat cells treated with PMA and A23187","IC80, IL-2 release from human PBMC treated with PMA and A23187"
"affinity maturation antibody hR198_HG1/LG1 (antibody, human IgG1, kappa) heavy: not shown light: DIQLTQSPSSLSASVGDRVTITCRASQSIGGSLSWFQQKPGKAPKRLIYSTSTLESGVPSRFSGSGSGTDYTLTISSLQPEDFAMYYCLQFAIFPDSFGQGTKVEIKRTVAAPSVFIFPPSDEQLKSGTASVVCLLNNFYPREAKVQWKVDNALQSGNSQESVTEQDSKDSTYSLSSTLTLSKADYEKHKVYACEVTHQGLSSPVTKSFNRGEC",≤ 0.04 µg/mL,≤ 0.01 µg/mL,≤ 0.02 µg/mL,≤ 2 µg/mL,≤ 0.2 µg/mL,≤ 0.4 µg/mL
"mouse anti-human Orai1 antibody 10F8 (antibody, mouse IgG1, kappa, V domains shown) VH: QVQLQQSGAELVRPGSSVKISCKASGYAFRSYWMNWVKQRPGQGLEWIGHIYPGDGDTNYNGKFKGKATLTADKSSSTAYMQLSSLTSEDSAVYLCGRGGTTVVVDYWGQGTTLTVSS VL: DIVMSQSPSSLAVSAGEKVTMSCKSSQSLLNSRTRKNYLAWYQQKPGQSPKLLIYWASTRESGVPDRFTGSGSGTDFTLTISSVQAEDLAVYYCKQSYNLPWTFGGGTKLEIKR",≥ 0.8 µg/mL,≥ 0.08 µg/mL,≥ 0.1 µg/mL,≥ 300 µg/mL,≥ 60 µg/mL,≥ 17 µg/mL
"human anti-human Orai1 antibody 2C1.1 (antibody, human IgG2, lambda, V domains shown) VH: QVQLQQWGAGLLKPSETLSLTCAVYGGSFSGYYWSWIRQPPGKGLEWIGEIDHSGSTNYNPALKSRLTISVDTSKNQFSLKLSSVTAADTAVYYCARAGSGGYEDWFDPWGQGTLVTVSS VL: QSVLTQPPSVSGAPGQRVTISCTGSSSNIGAGYNVHWYQQFPRTDPKLLIYVYNIRPSGVPDRFSGSRSGTSASLAITGLQTEDEADYYCQSYDSSLSGVVFGGGTKLTVLG",≥ 0.8 µg/mL,≥ 0.08 µg/mL,≥ 0.1 µg/mL,≥ 300 µg/mL,≥ 60 µg/mL,≥ 17 µg/mL
"mouse anti-human Orai1 antibody 14F74 (antibody, mouse IgG1, kappa, V domains shown) VH: QVQLQQSGAELVRPGSSVKISCKASGYAFSSYWMNWVKQRPGQGLEWIGHIYPGDGDTNYNGKFKGKATLTADKSSSTAYMQLSGLTSEDSAVYFCARSGRLRFAMDYWGQGTSVTVSS VL: DIVMSQSPSSLAVSAGEKVTMSCKSSQSLLNSRTRKNYLAWYQQKPGQSPKLLIYWASTRESGVPDRFTGSGSGTDFTLTISSVQAEDLAVYYCKQSYNLRTFGGGTKLEIQR",≥ 0.8 µg/mL,≥ 0.08 µg/mL,≥ 0.1 µg/mL,≥ 300 µg/mL,≥ 60 µg/mL,≥ 17 µg/mL
"human anti-human Orai1 antibody 5H3.1 (antibody, human IgG2, lambda, V domains shown) VH: QVQLVQSGAEVKKPGASVKVSCKASGYTFTDYYMNWVRQAPGQGLEWMGWINPNSGGTKYAQKFQGRVTMTRDTSIRTAYMELSRLRSDDTAVYYCAREYGGNSDWFDPWGQGTLVTVSS VL: QSVLTQPPSVSGAPGQRVTISCTGSSSNIGAGYDVHWYQQLPGTAPKLLIYGNSNRPSGVPDRFSGSKSGTSASLAITGLQAEDEADYYCQSYDNRLSDSVVIGGGTKLAVQG",≥ 0.8 µg/mL,≥ 0.08 µg/mL,≥ 0.1 µg/mL,≥ 300 µg/mL,≥ 60 µg/mL,≥ 17 µg/mL

# Results, then the binder that gave them:
"IC50, IFN-γ release from human PBMC treated with PMA and A23187","IC50, IL-2 release from Jurkat cells treated with PMA and A23187","IC50, IL-2 release from human PBMC treated with PMA and A23187","IC80, IFN-γ release from human PBMC treated with PMA and A23187","IC80, IL-2 release from Jurkat cells treated with PMA and A23187","IC80, IL-2 release from human PBMC treated with PMA and A23187",Binder
≤ 0.04 µg/mL,≤ 0.01 µg/mL,≤ 0.02 µg/mL,≤ 2 µg/mL,≤ 0.2 µg/mL,≤ 0.4 µg/mL,"hR198_HG1-LALA/LG1 (antibody, human IgG1, kappa, L234A L235A) heavy: not shown light: DIQLTQSPSSLSASVGDRVTITCRASQSIGGSLSWFQQKPGKAPKRLIYSTSTLESGVPSRFSGSGSGTDYTLTISSLQPEDFAMYYCLQFAIFPDSFGQGTKVEIKRTVAAPSVFIFPPSDEQLKSGTASVVCLLNNFYPREAKVQWKVDNALQSGNSQESVTEQDSKDSTYSLSSTLTLSKADYEKHKVYACEVTHQGLSSPVTKSFNRGEC"
≥ 0.8 µg/mL,≥ 0.08 µg/mL,≥ 0.1 µg/mL,≥ 300 µg/mL,≥ 60 µg/mL,≥ 17 µg/mL,"mouse anti-human Orai1 antibody 17F6 (antibody, mouse IgG1, kappa, V domains shown) VH: QVQLQQSGAELVRPGSSVKISCKASGYAFSSYWMNWVKQRPGQGLEWIGHIYPGDADTNYNGKFKGKATLTADKSSSTAYMHLSSLTSEDSAVYFCSRQLGFRYAMDYWGQGTSVTVSS VL: DIVMSQSPSSLAVSAGEKVTMSCKSSQSLLNSRTRKNYLAWYQQKPGQSPKLLIYWASTRESGVPDRFTGSGSGTDFTLTISSVQAEDLAVYYCKQSYNLRTFGGGTKLEIKR"

# Target: T1, human Orai1
# Test: flow cytometry, pcDNA3.1-hOrai1 transfected HEK293T cells
row,binding result,Binder
1,binds,"humanized anti-human Orai1 antibody hR198_H4/L4 (antibody, human IgG1, kappa, V domains shown, Human IgG1 / kappa; also called hH4/L4) VH: QVQLVQSGAEVKKPGASVKVSCKASGYPVTAYYISWIRQAPGQGLEYVGYIDMGNGRTNYNARFKGRATLTVDKSTSTAYMELSSLRSEDTAVYYCARDSNWGVDYWGQGTLVTVSS VL: DIQLTQSPSSLSASVGDRVTITCRASQSIGNSLSWFQQKPGKAVKRLIYSTSTLESGVPSRFSGSGSGTDYTLTISSLQPEDFAMYYCLQFATFPDTFGQGTKVEIKR"
2,binds,"parent antibody Fab hR198_H4/L4-Fab (Fab, V domains shown, Fab of hR198_H4/L4) VH: QVQLVQSGAEVKKPGASVKVSCKASGYPVTAYYISWIRQAPGQGLEYVGYIDMGNGRTNYNARFKGRATLTVDKSTSTAYMELSSLRSEDTAVYYCARDSNWGVDYWGQGTLVTVSS VL: DIQLTQSPSSLSASVGDRVTITCRASQSIGNSLSWFQQKPGKAVKRLIYSTSTLESGVPSRFSGSGSGTDYTLTISSLQPEDFAMYYCLQFATFPDTFGQGTKVEI"
